In patent US20090258363, “Targeted integration and expression of exogenous nucleic acid sequences” (Sangamo BioSciences, Inc., published 2009):

Experiments:
Assay in all cases: ZFP domain; assay not described
Details in all cases: tags: FokI C-terminal, 4-aa linker
sca-r29b ZFP-FokI = sca-r29b ZFP-FokI (synthetic)
sca-36b ZFP-FokI = sca-36b ZFP-FokI (synthetic)
sca-36c ZFP-FokI = sca-36c ZFP-FokI (synthetic)
sca-36a ZFP-FokI = sca-36a ZFP-FokI (synthetic)
Sequence of sca-36a ZFP-FokI (synthetic) (chain, as listed by the source): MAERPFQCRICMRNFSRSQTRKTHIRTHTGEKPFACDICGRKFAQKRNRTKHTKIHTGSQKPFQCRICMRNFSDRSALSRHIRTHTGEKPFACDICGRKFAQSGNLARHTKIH

Sequence of sca-r29b ZFP-FokI (synthetic) (chain, as listed by the source): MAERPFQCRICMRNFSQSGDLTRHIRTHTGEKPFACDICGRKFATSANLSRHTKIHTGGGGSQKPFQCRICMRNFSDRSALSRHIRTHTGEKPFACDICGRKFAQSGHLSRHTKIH
Sequence of sca-36b ZFP-FokI (synthetic) (chain, as listed by the source): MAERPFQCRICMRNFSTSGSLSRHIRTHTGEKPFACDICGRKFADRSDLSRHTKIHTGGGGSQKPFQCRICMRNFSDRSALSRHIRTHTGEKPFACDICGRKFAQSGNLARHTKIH
Sequence of sca-36c ZFP-FokI (synthetic) (chain, as listed by the source): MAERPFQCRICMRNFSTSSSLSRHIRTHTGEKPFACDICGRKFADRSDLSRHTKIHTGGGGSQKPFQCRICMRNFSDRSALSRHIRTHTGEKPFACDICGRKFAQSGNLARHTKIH

B1: sca-r29b site (dsDNA)
DNA 1: ACGTAGACTGAGG
DNA 2: CCTCAGTCTACGT
binding result (sca-r29b ZFP-FokI): binds

B2: sca-36b site (dsDNA)
DNA 1: GAAGTCTGCCGTT
DNA 2: AACGGCAGACTTC
binding result (sca-36b ZFP-FokI): binds

B3: sca-36c site (dsDNA)
DNA 1: GAAGTCTGCCGTT
DNA 2: AACGGCAGACTTC
binding result (sca-36c ZFP-FokI): binds

B4: sca-36a site (dsDNA)
DNA 1: GAAGTCTGCCGT
DNA 2: ACGGCAGACTTC
binding result (sca-36a ZFP-FokI): binds
